Assay: yeast display, Sf9 membrane polyspecificity reagent, FACS + sequencing; frameworks hold sequencing errors
In short: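 Polyreactivity labels are assigned by the sorting gate from which each nanobody was recovered. The gates were low and high (top ~1%), set on anti-HA fluorescence for expression and streptavidin fluorescence for reagent binding. Before sorting, galactose-induced (36–48 hours) yeast display cells were stained for 1 hour at 4 °C with 10% biotinylated, detergent-solubilized Sf9 membrane reagent.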

Sequence | polyreactivity (PSR sort gate)
QVQLVESGGGLDQAGGSLRLSCAAYGRILHFYAMGWYRQAPGKERELVSAIRWSSGRTYYADSVKGRFTISRDNAKNTVYLQMNSLKPEDTAVYYCAANNGYGMDYWGQGTQVTVSS | high polyreactivity
QVQLVESGGGLDQAGGSLRLSCAPSGSIFKRNAMGWYRQAPGKARELVAAISKSSGSTYYADSVKGRFTISRDNAKNTVYLQMNSLKPEDYAVYYCAAKYYSYVDKYYYWGQGTQVTVSS | high polyreactivity
QVQLVESGGGLDQAGGSLRLSCASSGFTFGRYAMGWYRQAPGKERELVDTITRSGVNTYYADSVKGRFTISRDNAKNTVYLQMNSLKPEDTAVSYCNVRYPLATYRLPAGEFDYWGQGTQVTVSS | high polyreactivity
QVQLVESGGGLDQAGGSLRLSFAASGLIFAVYAMGWYRQAPGKERELVAGISASAASTYYADSVKGRFTISRDNAKNTVYLQMNSLKPEDTAVYYCAAGFYRRGKYDYWGQGTQVTVSS | high polyreactivity
QVQLVESGGGLDQAGGSLRLSFAASGSTFVPNVMGWYRQAPGKERELVASITSGGITNYADSVKGRFTISRDNAKNTVYLQMNSLKPEDTAVKGDYWGQGTQVTVSS | low polyreactivity
QVQLVESGGGLDQAGGSLRLSSAASGFIFWFNAMRWYRQAPGTERELVATISRSDTSTYYADSVKGRFTISRDNAKNSVYLQMNSLKPEDTAVYYCATDVRETWLPEYYWGQGTEVTVSS | low polyreactivity
QVQLVESGGGLDQAGGSLRLSSAASGLTFFSEYAMGLYRQPPGIERELVASIDWSGDSTYYADSVKGRFTISRDNAMKTVYLQMNSLKPEYTAVYYCAKDYSTEISQEYYYWVQGTQVTVSS | high polyreactivity
QVQLVESGGGLDQAGGSLRLSSAASGLTFVTYAMGWYRQAPGTERELVAAISYSGGSTYYADSVKGRFTISRDNAKNTVYLQMNSLKPEDTAVYYCNARSPQPDGRPPYNYWGQGTQVTVSS | high polyreactivity
QVQLVESGGGLDQAGGSLRLSSAASGSIFLPNAMGWYRQAPGKEREFVADISWTGGRTYYADSVKGRFTISRDNAKHTVYLQMNRLKQEDTAVYYCAAKQYRYGLDYWGQGTQVTVSS | high polyreactivity
QVQLVESGGGLDQAGGSLRLSWAASGITFGWYAKGWYRLAPGKERELVASISSSGSTNYADSVKGRLTISRDNAKNTVYLQMNSQKTEDTAVYYCNKDYLLRHFYIYVIEGDYWGQGTKVTVSS | low polyreactivity
QVQLVESGGGLDQAGGSLRLTCAASGFIIHRYAMAWYRQGPGTEMELVAAISRSGVSTNYADSVKGRFTISRDNPKNTVYLHMYSLKTEDTSVYYCASPYYSYQSYKYWGKGTQVTVSS | high polyreactivity
QVQLVESGGGLDQAGGSLRLTCAASGRTFSRNAMGWYRQAPGKERELVAAISGSGGTTYYADSVKGRFTISRDNAKNTVYLQMKSLKPEDTAVYYCAADLRYAWVFWYEYWGLGTQVTVSS | low polyreactivity
QVQLVESGGGLDQAGGSLRLTCAAYGSTFRYNAMGWYRQAHGKERELVAAIDKRGDSTYADSVKGSFTISRDNAKNTVYLQMNSMNPDDTAVYYCAADSDSKYYYGFLLDTYEYWGQATQVTVSS | low polyreactivity
QVQLVESGGGLDQAGGSLRSSCAASGRIFPSYAMGWYRQAPGKERELVAAISRSGGSTYYADSVKGRFTISRDNAKNTVDLQMICLKPEDTGVYYCAKQVYSGYSTRARSRYYEYYYWGQGNQVTVSS | high polyreactivity
QVQLVESGGGLDQAGGTLRLSSAASGFTFGSYAMRWYRQAHGKERELVAAITRSGSTTYYADSVKGRFTISRDNAKNTFFLQMNSLKPEDTAVDYCNAYTVRSYRFDYWGQGTQVTVSS | high polyreactivity
QVQLVESGGGLDQARGSLRLSCAASGFTFNYYAMGWYRQAPGKERELVAAISSSGGSTYYADSVKGRFTISRDNAKNTVYLQMNSLKPDDTAVYYCAAPVLPGYNYWGQGTQVTVSS | high polyreactivity

Sequence | polyreactivity (PSR sort gate)
QVQLVESGGGLDQARGSLRLSCAASGRTFSSNAMGWYRQAPWKERELVAAISSSGAGTYYADSVKGRFTISRDNAKNTVYLQMNSLKPEDTAVYYCAARANSYHSFTSHYDYWGQGTQVTVSS | low polyreactivity
QVQLVESGGGLDQARGSLRLSCAASGSTLALYTMGWNRQATGKETELVAAISKNGGRTYYADSVKGRFTISRDNAKNTVYLQMYSLKPEDTAVYYCAAASGSYRGYDFWGQGSQVTVSS | high polyreactivity
QVQLVESGGGLDQAVGSLPLSCAASGRTFYLNTRGWYREAPWKEREFVAAISATAGRTYYADSVKGRFTISRDNAKNTVYLQMYSLKPEDTAVYYCAAVPLRIRWPNSSPALDYWGQGTQVTVSS | high polyreactivity
QVQLVESGGGLDQAVGSLRLSSAASGTTFDKNDMGLYRQAPAKERELVAAISGGSTNYADSVKGRFTISRDNAKNTVYLQMNSLKPEDTAVYYCAARPHAHSDYWGQGTQVTVSS | low polyreactivity
QVQLVESGGGLEQAGGRLRLSCAASGFTFDFYAMGWYRQAPGKERQLVAAISKNDGTTYYADSVKGRFTISRDNAKNTVYLQMNSLKPEDTAVYYCAAESGYPVYTYVSSGDYWGQGTQVTVSS | low polyreactivity
QVQLVESGGGLFHAGGSLRLSCAASGSIFVRNVMGGYRQAPGKERELVAAISRSGVSTYYADSVKGRFTISRDNAKNTVSLQMNSLKPEDTAVSYCNAGWRRRNSTGYPWGYDYWGQGTQVTVSS | high polyreactivity
QVQLVESGGGLFKAGGSLRLSCAASGLIFWGYTMAWSRQAPGKERELVAAISRRGGRTYYAASVMGRFTISRDNAKNTVYLQMNTLKPEDTAVDYCKADITSSGPKSDYWGQGTQVTVSS | high polyreactivity
QVQLVESGGGLFKAGGSLRLSCAASGRTFRGYTMGWYRQAPGKERELVAAITSGTRTNYADSVKGRFTISRDNAKNTVYLQMNSLKPEYTAVYYGAARDYIRPRYRPYDYWGHGTQVTVSS | high polyreactivity
QVQLVESGGGLFKEGGSLRLSCAASASYFWFNAMGWYRQAPGKEREFGASISRSGGTTYYADSVKGRFTISRDNAKNTVYLQMKSVIPEDTAVYYCNARAFGTGVGTGYFGKDRYDYWGQGSQVTVSS | low polyreactivity
QVQLVESGGGLFQAGGILRLSCAASGYTFPDYAMGWYRQAPGKEREFVATISWSGTSTYYADSVKGRFTISRDNAKNTVYLQMNSLTTEDTAVYYCNKTPSSWPDLYSYNYWGQGTQVTVSS | low polyreactivity
QVQLVESGGGLFQAGGRLRLSCAPSGSNFVGYVMGWYRQAPGKERELVARIRWGGGRTYYADSVKGRFTISRDNAKNTVYLQMNSLKPEDTAVYFCAAETWWRTRIYDYWGQGTQGTVSS | high polyreactivity
QVQLVESGGGLFQAGGSHRLSCAASGRIFPSYAMGWYRQAPGTQRELVAAIPRGGASTYYADSVKGRFTISRDIAQNTVYLQMNSLKPEDTAVYYCAARRSYTYGRDYWGQGTQVTVSS | high polyreactivity
QVQLVESGGGLFQAGGSLRISCAASGRTFSYYAMGWYRQAPVKERELVAAISWSGVITYYADSVKGRFTISRDNAKNTVYLQMNSMKPEDTAVYYCASRPYWSEFDYDYWGQGTQVTLSS | low polyreactivity
QVQLVESGGGLFQAGGSLRLICAASGITFEYNTMGWYRQAAGKERELVAAITSDGGSTYYADSVKGRFSISRDNAKNTVYLQMNSLKPEDTAVYYFAAVFYDQYYYWGQGTQVTVSS | high polyreactivity
QVQLVESGGGLFQAGGSLRLICAASGLIINGNAMGWYRQAPGKERELVADITGSSVRTYYADSVKGRFTISRDNAKNTVYLQMNSLKPEDTAVYYCAKDPDKVDYVDMDYWGQGTQVTVSS | low polyreactivity
QVQLVESGGGLFQAGGSLRLSCAASGRIFGSYAMGWYRQAPGKERELVAAIFSAGSTYYADSVKGRFTISRDNAKNTVYLQMNSLKPEDTAVYYCAAGAYWPWGEDYWGQATQVTVSS | high polyreactivity

From the nanobody polyreactivity screen of Harvey et al. (2022)
